Test results taken from patent US20230348603A1 (VERSEAU THERAPEUTICS, published 2023).

How the values were obtained:
Human VSIG4-L-Fc [1] = target: T1, Human VSIG4-L-Fc (human); assay: blocking ELISA, biotin-C3b on coated hVSIG4-L-Fc
T1 construct: also called hVSIG4-L-Fc; hVSIG4-L

Human VSIG4-L-Fc [2] = target: T1, Human VSIG4-L-Fc; assay: blocking ELISA, biotin-iC3b on coated hVSIG4-L-Fc
[3] = target: T2, Cynomolgus Monkey VSIG4-L-His (cynomolgus monkey); assay: ELISA, Fab P.E. 1:5 on coated antigen;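 further: mouse Fab P.E. samples in 1% skimmed milk PBS, bound to antigen-coated wells for 1 h at room temperature, read as absorbance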
T2 construct: ECD with His tag; also called cyVSIG4-L; cyno VSIG4-L-His
T2 chain: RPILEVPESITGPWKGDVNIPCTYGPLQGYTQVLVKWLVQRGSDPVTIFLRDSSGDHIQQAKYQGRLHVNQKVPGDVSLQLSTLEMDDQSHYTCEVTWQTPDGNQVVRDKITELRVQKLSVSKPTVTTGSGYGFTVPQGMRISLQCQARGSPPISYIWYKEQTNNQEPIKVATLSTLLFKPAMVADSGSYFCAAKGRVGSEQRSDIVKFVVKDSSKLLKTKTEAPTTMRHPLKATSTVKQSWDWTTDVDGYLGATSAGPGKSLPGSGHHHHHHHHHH

Human VSIG4-S-Fc [4] = target: T3, Human VSIG4-S-Fc (human); assay: ELISA, Fab P.E. 1:5 on coated antigen;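 further: mouse Fab P.E. samples in 1% skimmed milk PBS, bound to antigen-coated wells for 1 h at room temperature, read as absorbance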
T3 construct: short isoform ECD fused to human Fc1; also called hVSIG4-S
T3 sequence (chain, as listed by the source limits assumed): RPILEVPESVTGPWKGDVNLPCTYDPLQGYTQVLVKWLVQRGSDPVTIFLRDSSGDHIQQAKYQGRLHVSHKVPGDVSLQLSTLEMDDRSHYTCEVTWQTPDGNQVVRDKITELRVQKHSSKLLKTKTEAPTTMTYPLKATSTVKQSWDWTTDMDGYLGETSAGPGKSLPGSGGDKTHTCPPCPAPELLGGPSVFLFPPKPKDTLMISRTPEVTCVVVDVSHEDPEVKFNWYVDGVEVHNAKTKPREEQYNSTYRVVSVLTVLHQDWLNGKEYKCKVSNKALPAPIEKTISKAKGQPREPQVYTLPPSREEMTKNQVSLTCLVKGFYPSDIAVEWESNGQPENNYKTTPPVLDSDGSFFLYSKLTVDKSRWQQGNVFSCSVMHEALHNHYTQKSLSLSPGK

Human VSIG4-L-Fc [5] = target: T1, Human VSIG4-L-Fc; assay: ELISA, Fab P.E. 1:5 on coated antigen;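 further: mouse Fab P.E. samples in 1% skimmed milk PBS, bound to antigen-coated wells for 1 h at room temperature, read as absorbance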
Human VSIG4-L-His [6] = target: T4, Human VSIG4-L-His (human, UniProt Q9Y279 20-283); assay: SPR (Biacore T200), Fab P.E. 1:5 over immobilised antigen
T4 construct: long isoform ECD with His tag; also called hVSIG4-L
T4 sequence: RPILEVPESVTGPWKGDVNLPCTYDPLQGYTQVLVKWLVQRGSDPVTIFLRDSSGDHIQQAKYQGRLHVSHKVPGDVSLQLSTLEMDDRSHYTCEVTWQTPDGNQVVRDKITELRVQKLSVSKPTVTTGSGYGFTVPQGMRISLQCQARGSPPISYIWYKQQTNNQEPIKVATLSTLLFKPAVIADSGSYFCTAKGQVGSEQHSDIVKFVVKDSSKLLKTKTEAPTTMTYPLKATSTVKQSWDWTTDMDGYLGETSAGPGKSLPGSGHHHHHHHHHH

Human VSIG4-L-Fc [7] = target: T1, Human VSIG4-L-Fc; assay: ligand blocking of iC3b, IgG
Human VSIG4-L-Fc [8] = target: T1, Human VSIG4-L-Fc; assay: BLI binning on hVSIG4-L-Fc, competitor 14D12 first;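 further: normalized to binding of second antibody without first competitor antibody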
[9] = target: T5, Human VSIG4-L-CHO (human VSIG4 long isoform on CHO-K1 cells) (human, UniProt Q9Y279 20-399); assay: flow cytometry (FJB), 200 nM mAb, huVSIG4-L CHO-K1 cells
T5 construct: also called hVSIG4-L (flow cytometry)
T5 sequence: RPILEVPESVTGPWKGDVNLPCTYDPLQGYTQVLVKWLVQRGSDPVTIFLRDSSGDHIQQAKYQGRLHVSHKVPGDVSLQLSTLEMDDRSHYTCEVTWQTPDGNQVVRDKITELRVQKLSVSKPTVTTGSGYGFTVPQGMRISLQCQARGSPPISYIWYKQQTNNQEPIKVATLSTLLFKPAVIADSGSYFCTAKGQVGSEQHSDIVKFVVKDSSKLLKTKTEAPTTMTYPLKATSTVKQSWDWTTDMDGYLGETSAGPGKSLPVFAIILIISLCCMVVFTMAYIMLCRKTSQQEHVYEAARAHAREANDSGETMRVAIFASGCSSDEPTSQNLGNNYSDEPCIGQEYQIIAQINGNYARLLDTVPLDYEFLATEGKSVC

Human VSIG4-L-Fc [10] = target: T1, Human VSIG4-L-Fc; assay: BLI binning on hVSIG4-L-Fc, competitor 15A06 first;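 further: normalized to binding of second antibody without first competitor antibody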
Human VSIG4-L-Fc [11] = target: T1, Human VSIG4-L-Fc; assay: BLI binning on hVSIG4-L-Fc, competitor 15C03 first;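 further: normalized to binding of second antibody without first competitor antibody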
[12] = target: T5, Human VSIG4-L-CHO (human VSIG4 long …); assay: flow cytometry (FJB), 200 nM mAb, huVSIG4-L CHO-K1 over parental CHO-K1
Human VSIG4-L-Fc [13] = target: T1, Human VSIG4-L-Fc; assay: ligand competition ELISA (FJB), blocked ligand C3b
Human VSIG4-L-Fc [14] = target: T1, Human VSIG4-L-Fc; assay: BLI binning on hVSIG4-L-Fc, competitor 12A08 first;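 further: normalized to binding of second antibody without first competitor antibody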
Human VSIG4-L-His [15] = target: T4, Human VSIG4-L-His; assay: BLI (Octet), IgG on AHC sensor, antigen 100 nM
Human VSIG4-S-His = target: T6, Human VSIG4-S-His (human, UniProt Q9Y279 20-283); assay: BLI (Octet), IgG on AHC sensor, antigen 100 nM
T6 construct: short isoform ECD with His tag; also called hVSIG4-S; VISG4-S-His
T6 sequence: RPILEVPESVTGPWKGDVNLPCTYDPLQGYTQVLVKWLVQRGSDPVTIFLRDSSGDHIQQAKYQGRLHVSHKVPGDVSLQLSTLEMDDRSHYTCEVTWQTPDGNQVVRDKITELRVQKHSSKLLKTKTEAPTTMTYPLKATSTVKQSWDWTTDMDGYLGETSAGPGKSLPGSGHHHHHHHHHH

Human VSIG4-L-Fc [16] = target: T1, Human VSIG4-L-Fc; assay: BLI binning on hVSIG4-L-Fc, competitor 15C04 first;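 further: normalized to binding of second antibody without first competitor antibody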
Human VSIG4-L-Fc [17] = target: T1, Human VSIG4-L-Fc; assay: BLI binning on hVSIG4-L-Fc, competitor 16E03 first;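 further: normalized to binding of second antibody without first competitor antibody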
Human VSIG4-L-Fc [18] = target: T1, Human VSIG4-L-Fc; assay: BLI binning on hVSIG4-L-Fc, competitor 13H11 first;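 further: normalized to binding of second antibody without first competitor antibody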
Human VSIG4-L-Fc [19] = target: T1, Human VSIG4-L-Fc; assay: BLI binning on hVSIG4-L-Fc, competitor 12A12 first;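 further: normalized to binding of second antibody without first competitor antibody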
[20] = target: T5, Human VSIG4-L-CHO (human VSIG4 long …); assay: flow cytometry, CHO-K1 cells expressing hVSIG4-L
Human VSIG4-L-Fc [21] = target: T1, Human VSIG4-L-Fc; assay: ligand blocking of C3b, IgG
Human VSIG4-L-Fc [22] = target: T1, Human VSIG4-L-Fc; assay: BLI binning on hVSIG4-L-Fc, competitor 14C05 first;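 further: normalized to binding of second antibody without first competitor antibody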
Mouse VSIG4-His = target: T7, Mouse VSIG4-His (mouse); assay: ELISA, IgG 50 nM on coated antigen;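 further: Mouse-human chimeric IgG4 antibodies incubated 1 h on plate-coated VSIG4 proteins, bound IgG detected with HRP-labelled anti-human IgG, irrelevant antibody and protein as specificity controls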
T7 construct: ECD with His tag; also called mVSIG4
T7 chain: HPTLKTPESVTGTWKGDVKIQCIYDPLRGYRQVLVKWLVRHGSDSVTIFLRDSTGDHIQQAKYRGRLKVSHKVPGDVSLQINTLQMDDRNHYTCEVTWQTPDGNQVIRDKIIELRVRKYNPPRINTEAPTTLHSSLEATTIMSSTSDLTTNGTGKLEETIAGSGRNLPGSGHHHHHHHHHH

Human VSIG4-S-Fc [23] = target: T3, Human VSIG4-S-Fc; assay: ELISA, IgG 50 nM on coated antigen;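 further: Mouse-human chimeric IgG4 antibodies incubated 1 h on plate-coated VSIG4 proteins, bound IgG detected with HRP-labelled anti-human IgG, irrelevant antibody and protein as specificity controls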
Human VSIG4-L-Fc [24] = target: T1, Human VSIG4-L-Fc; assay: ELISA, IgG 50 nM on coated antigen;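 further: Mouse-human chimeric IgG4 antibodies incubated 1 h on plate-coated VSIG4 proteins, bound IgG detected with HRP-labelled anti-human IgG, irrelevant antibody and protein as specificity controls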
Human VSIG4-L-Fc [25] = target: T1, Human VSIG4-L-Fc; assay: ligand competition ELISA (FJB), blocked ligand iC3b
[26] = target: T2, Cynomolgus Monkey VSIG4-L-His; assay: ELISA, IgG 50 nM on coated antigen; ELISA, bivalent IgG on plate-coated cyVSIG4-L (avid format)
Human VSIG4-L-Fc [27] = target: T1, Human VSIG4-L-Fc; assay: BLI binning on hVSIG4-L-Fc, competitor 16E10 first;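 further: normalized to binding of second antibody without first competitor antibody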
Human VSIG4-L-His [28] = target: T4, Human VSIG4-L-His; assay: SPR (FJB)

B1: 14D12 mouse Fab (periplasmic extract) (Fab, V domains shown)
VH: QIQLVQSGPELKKPGETVKISCKASGYTFTNYGMNWVKQTPGKGLKWMGLINTYTGEPTYADDFKGRFAFSLETSASTAYLQINNLKNEDMATYFCARERIYGYLHYFDYWGQGTTLTVSS
VL: DVVMTQTPASLAVSLGQRATISCKASQSVDYDGDSYMNWYQQKPGQPPKLLIYAASNLESGIPARFSGSGSGTDFTLNIHPVEEEDAATYYCQQSNEDPRTFGGGTKLEIK
notes: mouse Fab with C-terminal His6-c-myc tag
Percent Blocking C3b (Human VSIG4-L-Fc [1]): 70.3%
Percent Blocking iC3b (Human VSIG4-L-Fc [2]): 56%
ELISA OD450 [3]: 4.32 OD450
ELISA OD450 (Human VSIG4-S-Fc [4]): 4.18 OD450
ELISA OD450 (Human VSIG4-L-Fc [5]): 4.32 OD450
koff (Human VSIG4-L-His [6]): 0.0063 s⁻¹

B2: 14C05 mouse Fab (periplasmic extract) (Fab, V domains shown)
VH: EVMLVESGPELKKPGETVKISCKASGYTFTNYGMNWVKQAPGKGLKWMGSINTYTGEATYADDFKGRFAFSLETSANTAYLQIDNLKNEDTATYFCARGDYYGRGTWFAYWGQGTLVTVSA
VL: ETTVTQSHKFMSTSVGDRVSITCKASQDVSTAVAWYQQKPGQSPKLLIYSASYRYPGVPDRFTGSGSGTDFTFTISSVQAEDLAVYYCQQDYSSPWTFGGGTKLEIK
notes: as for B1
Percent Blocking C3b (Human VSIG4-L-Fc [1]): 88.8%
Percent Blocking iC3b (Human VSIG4-L-Fc [2]): 88.7%
ELISA OD450 [3]: 4.37 OD450
ELISA OD450 (Human VSIG4-S-Fc [4]): 4.32 OD450
ELISA OD450 (Human VSIG4-L-Fc [5]): 4.33 OD450
koff (Human VSIG4-L-His [6]): 0.00037 s⁻¹

B3: 12A12 mouse Fab (periplasmic extract) (Fab, V domains shown)
VH: QVQMKQSGAELAKPGASVKMSCKASGYTFTNYWMHWVKQRPGQGLEWIGYINPSTGYTDYNQNFKDRATLTADKSSSTAYMQLSSLTSEDSAVYYCIRGSDYYGRDYWGQGTTLTVSS
VL: DIQMTQTTSSLSASLGDRVTISCRASQDISNYLNWYQQKPDGTLKLLIYYTSRLHSGVPSRFSGSGSGTDYSLTISNLEQEDIATYFCRQGNTLPWTFGGGTKLEIK
notes: as for B1
Percent Blocking C3b (Human VSIG4-L-Fc [1]): 74.8%
Percent Blocking iC3b (Human VSIG4-L-Fc [2]): 76.5%
ELISA OD450 [3]: 4.37 OD450
ELISA OD450 (Human VSIG4-S-Fc [4]): 4.18 OD450
ELISA OD450 (Human VSIG4-L-Fc [5]): 4.42 OD450
koff (Human VSIG4-L-His [6]): 0.0038 s⁻¹

B4: 15C03 mouse/human chimeric IgG4 (S228P) kappa (antibody, V domains shown)
VH: EVKLLESGPGLVKPSQSLSLTCTVTGYSITSDYAWNWIRQFPGNKLEWMGYISYSGSTRYNPSLKSRISITRDTSNNQFFLQLNSVTTEDTATYYCARSGYAAMDYWGQGTSVTVSS
VL: ENVLTQSPAIMSASPGEKVTMTCRASSSVSSSYLHWYQQKSGASPKLWIYSTSNLASGVPARFSGSGSGTSYSLTISSVEAEDAATYYCQQYSGYPLTFGSGTKLEIKR
Percent Blocking iC3b (Human VSIG4-L-Fc [7]): 90%
normalized maximum binding nm shift (Human VSIG4-L-Fc [8]): 0.41 normalized
Binding (200 nM) MFI [9]: 48900 MFI
normalized maximum binding nm shift (Human VSIG4-L-Fc [10]): 0.82 normalized
normalized maximum binding nm shift (Human VSIG4-L-Fc [11]): 0.15 normalized
Binding (200 nM) Fold-Over-Parental [12]: 83 fold
IC50 (Human VSIG4-L-Fc [13]): 2.4 nM
normalized maximum binding nm shift (Human VSIG4-L-Fc [14]): 0.8 normalized
Kd (Human VSIG4-L-His [15]): 32.1 nM
Kd (Human VSIG4-S-His): 18.6 nM
normalized maximum binding nm shift (Human VSIG4-L-Fc [16]): 0.89 normalized
normalized maximum binding nm shift (Human VSIG4-L-Fc [17]): 0.13 normalized
normalized maximum binding nm shift (Human VSIG4-L-Fc [18]): 0.74 normalized
normalized maximum binding nm shift (Human VSIG4-L-Fc [19]): 0.76 normalized
EC50 [20]: 2.3 nM
Percent Blocking C3b (Human VSIG4-L-Fc [21]): 90%
normalized maximum binding nm shift (Human VSIG4-L-Fc [22]): 0.44 normalized
ELISA OD450 (Mouse VSIG4-His): 0.057 OD450
ELISA OD450 (Human VSIG4-S-Fc [23]): 3.64 OD450
ELISA OD450 (Human VSIG4-L-Fc [24]): 4.4 OD450
IC50 (Human VSIG4-L-Fc [25]): 12.8 nM
ELISA OD450 [26]: 4.5 OD450
normalized maximum binding nm shift (Human VSIG4-L-Fc [27]): 0.93 normalized
Kd (Human VSIG4-L-His [28]): 17.9 nM

B5: 16E10 mouse Fab (periplasmic extract) (Fab, V domains shown)
VH: QVQLQQSGAELVRPGTSVKISCKASGYTFTNYWLGWVKQRPGHGLEWIGDIYPGGGYTNYNEKFKGKATLTADTSSSTAYMQLSSLTSEDSAVYFCAKFYYYGSSYYFDSWGQGTTLTVSS
VL: DIVLTQSPSSLSVSAGEKVTLSCKSSQSLLNSGNQENYLAWYQQKPGQPPKLLIYGASTRESGVPDRFTGSGSGTDFTLTISSVQAEDLAVYYCQNDHSYPLTFGAGTKLELK
notes: as for B1
Percent Blocking C3b (Human VSIG4-L-Fc [1]): 7.1%
Percent Blocking iC3b (Human VSIG4-L-Fc [2]): 7.6%
ELISA OD450 [3]: 1.88 OD450
ELISA OD450 (Human VSIG4-S-Fc [4]): 1.32 OD450
ELISA OD450 (Human VSIG4-L-Fc [5]): 1.86 OD450
koff (Human VSIG4-L-His [6]): 0.025 s⁻¹
